This assay deals with human fibrinogen (human) (UniProt P02671). The assay can be described thus: cell-based or functional assay.

Where no end group is shown, it is not given here.

This note sets out measurements from patent US20180154038A1.

Chain of human fibrinogen (human) (P02671 20-629 limits assumed, chain 1 of 3): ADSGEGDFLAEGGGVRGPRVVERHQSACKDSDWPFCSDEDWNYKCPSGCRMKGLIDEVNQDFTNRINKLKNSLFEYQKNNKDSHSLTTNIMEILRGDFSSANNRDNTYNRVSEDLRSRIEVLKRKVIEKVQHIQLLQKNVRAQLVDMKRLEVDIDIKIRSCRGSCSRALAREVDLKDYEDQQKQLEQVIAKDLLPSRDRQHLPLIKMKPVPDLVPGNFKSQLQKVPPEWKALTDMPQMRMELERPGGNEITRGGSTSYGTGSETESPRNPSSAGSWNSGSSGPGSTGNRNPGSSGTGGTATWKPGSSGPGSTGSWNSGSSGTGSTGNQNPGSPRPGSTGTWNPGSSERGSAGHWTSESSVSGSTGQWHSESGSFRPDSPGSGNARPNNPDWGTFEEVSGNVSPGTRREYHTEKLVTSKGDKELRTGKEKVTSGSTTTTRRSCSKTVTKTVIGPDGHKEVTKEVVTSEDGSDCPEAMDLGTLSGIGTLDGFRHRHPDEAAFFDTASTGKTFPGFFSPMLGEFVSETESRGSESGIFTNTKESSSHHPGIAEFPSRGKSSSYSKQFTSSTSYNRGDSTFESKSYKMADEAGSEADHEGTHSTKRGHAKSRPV
Chain of human fibrinogen (human) (P02675 31-491 limits assumed, chain 2 of 3, further chain): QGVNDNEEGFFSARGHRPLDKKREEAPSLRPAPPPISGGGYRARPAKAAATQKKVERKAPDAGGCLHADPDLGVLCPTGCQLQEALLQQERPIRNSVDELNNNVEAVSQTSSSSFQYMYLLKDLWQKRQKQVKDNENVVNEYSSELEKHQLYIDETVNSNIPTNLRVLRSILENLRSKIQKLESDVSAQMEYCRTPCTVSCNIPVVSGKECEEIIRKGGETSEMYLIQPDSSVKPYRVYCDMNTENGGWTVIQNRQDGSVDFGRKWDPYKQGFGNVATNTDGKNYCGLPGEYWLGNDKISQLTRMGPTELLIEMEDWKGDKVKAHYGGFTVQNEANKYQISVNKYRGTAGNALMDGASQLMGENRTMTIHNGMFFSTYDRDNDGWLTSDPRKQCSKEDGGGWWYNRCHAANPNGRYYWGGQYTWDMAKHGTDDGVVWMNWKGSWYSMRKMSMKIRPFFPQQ
Chain of human fibrinogen (human) (P02679 other isoform, or with tags, fused parts or gaps limits assumed, chain 3 of 3, further chain): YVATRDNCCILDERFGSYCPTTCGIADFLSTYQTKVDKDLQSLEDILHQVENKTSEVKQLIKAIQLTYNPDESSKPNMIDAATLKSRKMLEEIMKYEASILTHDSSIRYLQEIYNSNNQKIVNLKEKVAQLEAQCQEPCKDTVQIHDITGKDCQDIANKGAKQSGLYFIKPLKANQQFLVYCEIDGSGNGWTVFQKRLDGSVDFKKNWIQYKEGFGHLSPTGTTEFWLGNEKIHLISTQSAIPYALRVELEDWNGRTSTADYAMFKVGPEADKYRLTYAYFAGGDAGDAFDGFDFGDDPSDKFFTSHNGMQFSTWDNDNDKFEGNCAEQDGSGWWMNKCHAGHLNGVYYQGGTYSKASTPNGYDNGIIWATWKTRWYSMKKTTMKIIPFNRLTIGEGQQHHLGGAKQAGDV

B1: Peptide Dendrimer No. 12 (peptide, from a related filing, part only)
peptide: GPRPG
chain: KKKKK
modifications: not fully specified; also: five-arm peptide dendrimer, arms attached by C-terminus to branched core
Turning to B1, the Clotting activity (seconds) in human fibrinogen @ c = 3 mg/ml; HXP12 extracted from HA paste, 0.06 mg/ml; after sterilization, accelerated aging @ 40 C, 2 weeks turned out to be 3.6 s; the Clotting activity (seconds) in human fibrinogen @ c = 3 mg/ml; HXP12 extracted from HA paste, 0.06 mg/ml; after sterilization, accelerated aging @ 40 C, 4 weeks worked out at 5.4 s; the Clotting activity (seconds) in human fibrinogen @ c = 3 mg/ml; HXP12 extracted from HA paste, 0.06 mg/ml; autoclaved @ 121 C stood at 3.3 s; the Clotting activity (seconds) in human fibrinogen @ c = 3 mg/ml; HXP12 extracted from HA paste, 0.06 mg/ml; non autoclaved was determined as 1 s. Also, the Clotting activity (seconds) in human fibrinogen; HXP12 0.05 mg/ml in saline; after sterilization, storage @ 40 C, 4 wks came to 0.9 s; the Clotting activity (seconds) in human fibrinogen; HXP12 0.05 mg/ml in saline; after sterilization, storage @ 40 C, 7 wks turned out to be 1.2 s; the Clotting activity (seconds) in human fibrinogen; HXP12 0.05 mg/ml in saline; after sterilization, storage @ 40 C, 13 wks was determined as 1.1 s; the Clotting activity (seconds) in human fibrinogen; HXP12 0.05 mg/ml in saline; after sterilization, storage @ 40 C, 27 wks was found to be 1.1 s. The same molecule showed a Clotting activity (seconds) in human fibrinogen; HXP12 0.05 mg/ml in saline; autoclaved @ 121 C of 1 s; a Clotting activity (seconds) in human fibrinogen; HXP12 0.05 mg/ml in saline; non autoclaved of 1.1 s; a Clotting activity (seconds) in human plasma; HXP12 extracted from HA paste, 0.1 mg/ml; after sterilization, accelerated aging @ 80 C, 4 hours of 2.8 s; a Clotting activity (seconds) in human plasma; HXP12 extracted from HA paste, 0.1 mg/ml; after sterilization, accelerated aging @ 80 C, 16 hours of 4.8 s. The Clotting activity (seconds) in human plasma; HXP12 extracted from HA paste, 0.1 mg/ml; autoclaved @ 121 C came to 2.6 s; the Clotting activity (seconds) in human plasma; HXP12 extracted from HA paste, 0.1 mg/ml; non autoclaved stood at 2 s; the clotting time in human plasma, dendrimer 0.25 mg/ml, 37 C is < 1 s.
